# In patent US6673571B2, “Polypeptides having aminopeptidase activity and nucleic acids encoding same” (Novozymes Biotech, Inc., priority 1997, dated 2004):
# Assays:
# [1] = pH optimum / pH profile with Ala-pNA; format: biochemical; conditions: room temperature
# Experimental: The pH optimum for the 67 kDa aminopeptidase I was determined using the following protocol. The buffer solutions at different pH's were prepared by adding distilled water to 4.25 g of sodium acetate and 3.78 g of Tris (free base) to a final volume of 250 ml and adjusting the pH to 8.5, 8.0, 7.5, 7.0, 6.5, 5.80, 5.5, and 5.0 with 36.5-38% HCl. Aliquots of 10 ml were removed at each pH. A 20 μl volume of a 100 mg/ml solution of Ala-pNA in DMSO was added to 980 μl of each buffer solution. The pH was then determined to be 8.5, 8.0, 7.57, 7.30, 7.09, 6.68, 6.14, and 5.25 for the buffer solutions after the addition of the substrate. Another solution of substrate at a concentration of 2 mg/ml was prepared at the various pHs. The reaction was initiated by the addition of 10 μl of enzyme solution, diluted 5-fold in 10 mM Tris-HCl pH 7.5, to 200 μl of substrate at the various pHs at room temperature and monitored at 405 nm.
# There was no detectable autohydrolysis of Ala-pNa in the pH range 5.25-8.5.
# soy protein = test: Degree of hydrolysis (DH) in soy protein hydrolysis, OPA method; format: biochemical, soy bean; conditions: for DH: 50° C., 18 hours
# Experimental: The degree of hydrolysis (DH) of the soy protein was determined as follows. The DH, defined as described in by Adler-Nissen (1986, Enzymic Hydrolysis of Food Proteins, Elsevier Applied Science Publishers), was determined by reaction of the supernatant with OPA (ortho-phthaldialdehyde, Sigma Chemical Co., St. Louis, Mo.) essentially as described by Church et al., 1983, Journal of Dairy Science 66: 1219-1227 with correction factors as determined by Adler-Nissen, 1979, Agricultural and Food Chemistry 27: 1256-1262.
# The aminopeptidase I was added in increasing dosage to either a low-background (1.5% of the substrate protein) or a high background (6% of the substrate protein) of FLAVOURZYME 1000L™ and a dosage of ALCALASE 2.4L® of 1.5% of the substrate protein. The experiments were carried out as described below:
# Hydrolysis was carried out on a 10 ml scale at 50° C. for 18 hours. The initial pH was 7 with no pH readjustment during hydrolysis. Inactivation of the enzyme was carried out at 85° C. for 3 minutes in a water bath. The substrate concentration was 2% protein from soy bean meal. The substrate was heat treated in a water bath at 85° C. for 3 minutes. The enzymes used with FLAVOURZYME 1000L™ and ALCALASE 2.4L® described above were crude Sphingomonas capsulata aminopeptidase I powder (see Example 1) and the purified Sphingomonas capsulata aminopeptidase I described in Example 4.
# [2] = Temperature stability (residual activity after 20 minutes incubation); format: physicochemical; conditions: pH 7.5
# Experimental: The temperature stability of aminopeptidase I was determined by incubating the enzyme for 20 minutes in 50 mM sodium phosphate pH 7.5 buffer at temperatures in the range of 35° C. to 55° C. followed by cooling on ice and measuring the residual activity using Ala-pNA as substrate at pH 7.5 as described above.
# [3] = Specific activity in glycine aminopeptidase units (GAPU); format: biochemical; conditions: Gly-pNA, 50 mM Tris-HCl pH 7.5, 37° C.
# Experimental: The enzymes used with FLAVOURZYME™ and ALCALASE® were crude Sphingomonas capsulata aminopeptidase I powder and purified Sphingomonas capsulata aminopeptidase I as in Example 7. Glycine aminopeptidase unit (GAPU) of both crude and purified enzyme was measured in 50 mM Tris-HCl pH 7.5 buffer at 37° C. using Gly-pNA as a substrate. Aminopeptidase I was assayed at 37° C. in 50 mM Tris-HCl (pH 7.5). Gly-pNA (Bachem Feinchemikalien AG, Bubendorf, Switzerland) was dissolved in 40% dioxane at a concentration of 2.5 mg/ml and 1.5 volume of 50 mM Tris-HCl (pH 7.5) was added to a substrate concentration of 1 mg/ml. The enzyme sample was diluted in 500 μl of the same buffer and 100 μl of the substrate solution was added and incubated at 37° C. for 5 minutes. The reaction was terminated by the addition of 300 μl of 1 M sodium acetate pH 4.0 buffer. For the blank reaction, the stop solution was added to the enzyme solution and incubated for 5 minutes at 37° C., and then the substrate solution was added. The absorbance at 410 nm was measured for both the sample and blank reactions. The enzyme activity was calculated using the molecular extinction coefficient at 410 nm for pNA as 9480 M^−1 cm^−1. One unit of GAPU was defined as the quantity of enzyme that hydrolyses 1 micromole of Gly-pNA at 37° C. per minute under the conditions described above. […]
# [4] = Substrate specificity: initial rates of hydrolysis of para-nitroanilides; format: biochemical; conditions: pH 7.5, 25° C.
# Experimental: Stock solutions of 100 mg of each para-nitroanilide per ml of dimethylsulfoxide were diluted with 50 mM sodium phosphate pH 7.5 buffer to concentrations of 2 mg per ml. Where the substrates were incompletely soluble, their suspensions were used (shown with an asterisk in Table 2 below). The reaction of the Sphingomonas capsulata aminopeptidase I with each para-nitroanilide was initiated when a 10 μl aliquot of the enzyme solution in 50 mM sodium phosphate pH 7.0 buffer was added to 190 μl of a substrate solution in a 96 well microtiter plate. Analysis of initial rates of hydrolysis of the para-nitroanilides was monitored at 405 nm and 25° C. in a THERMOmax Microplate Reader (Molecular Devices Corp., Sunnyvale, Calif., USA).
molecule,measurement,setting,value
Sphingomonas capsulata aminopeptidase I: purified aminopeptidase of 67 kDa from Sphingomonas capsulata IFO 12533; deduced amino acid sequence SEQ ID NO:2 (protein) MRKTPQGIGLLSALSTSTLALATLILAQPALAQVQPASNSRPMAVPIAHGVPDAQDVPYPGTIGLQIDATDLATGAFRVVETVPVAADAKELILQLPAWLPGEHGNRGPVAELAGITFEAKGQKLAWTRDPVEVNAFHIPLPAGTSEVVARFIHTSPLRDSEGRITVTREMLNVQWEKMSLYPAGHYVRQIKVRPTVSFPQGWTVFTALDGKTQSGAGNTVTWAETDYETLVDSPIFAGLYAARHDLGHNVYFDLVADKPELLAIKPENLAAYRNLADEAVGAFGARHFDHYDFLLALTDRMGSIGLEHHRSSENQQEPKSLTDWAAYDWDRNVIAHEFSHSWDGKYRRSAKLWTPDYRQPMQDNLLWVYEGQTQFWGLVLAARSGVQSKDVVLGSLANYAGTFTQTAGRDWRSVEDTTMDPIFAARKPKPYSSLTRNEDYYTEGALVWLEADQIIRDGTGGKKGLDDFAKAFFGVRDGDWGVLTYEFDDVVKTLNGVYPYDWATFLKTRLQTPGQPVPLGGIERGGYKLEFKDEPNPYDKARMADAKVLSLFNSLGVTLDKDGKVTASRWDGPAFKAGLVSGMQVMAVNGDAYDADKLKGAITNAKTGNPGAGRPIELLVKRDDRFVTLPITYADGLRWPWLVRTAPGTAPTGLDKLLAPHASKLPVGKAAK,Relative activity (%),"[1]; pH 5.25, Ala-pNA",24.9%
same,Relative activity (%),"[1]; pH 6.14, Ala-pNA",56.4%
same,Relative activity (%),"[1]; pH 6.68, Ala-pNA",78.4%
same,Relative activity (%),"[1]; pH 7.09, Ala-pNA",99.4%
same,Relative activity (%),"[1]; pH 7.30, Ala-pNA",100%
same,Relative activity (%),"[1]; pH 7.57, Ala-pNA",92.8%
same,Relative activity (%),"[1]; pH 8.0, Ala-pNA",61%
same,Relative activity (%),"[1]; pH 8.49, Ala-pNA",24.2%
same,% Relative increase in DH,soy protein; 1.5% FLAVOURZYME +67 kDa AP,34.8%
same,% Relative increase in DH,soy protein; 1.5% FLAVOURZYME +67 kDa AP versus 6.0% FLAVOURZYME,−2.2%
same,% Relative increase in DH,soy protein; 6.0% FLAVOURZYME +67 kDa AP,14.2%
same,DH,"soy protein; added to high dosage (6%) FLAVOURZYME + 1.5% ALCALASE, from DH 61%",71%
same,DH,"soy protein; added to low dosage (1.5%) FLAVOURZYME + 1.5% ALCALASE, from DH 44%",61-62%
same,share of the DH increasing effect of the crude enzyme,"soy protein; high dosage of FLAVOURZYME, (71−61)/(77−61)×100%",63%
same,share of the DH increasing effect of the crude enzyme,"soy protein; low dosage of FLAVOURZYME, (62−44)/(72−44)×100%",64%
same,effect of adding aminopeptidase I as % of the effect of the crude enzyme,"soy protein; relative to 1.5% + 0.5% extra FLAVOURZYME, (62−48)/(72−48)×100%",58%
same,effect of aminopeptidase I as % of the effect of the crude enzyme,"soy protein; relative to 6% + 1% extra FLAVOURZYME, (71−63)/(77−63)×100%",57%
same,residual activity,[2]; 45° C.,approximately 60%
same,residual activity,[2]; 50° C.,completely inactivated
same,temperature stability,[2]; up to 40° C.,approximately 100%
same,specific activity,[3],6.45 GAPU/mg
same,Relative activity (%),[4]; Ala p-nitroanilide,100%
same,Relative activity (%),[4]; Asp p-nitroanilide,4.5%
same,Relative activity (%),[4]; Glu* p-nitroanilide (suspension),6%
same,Relative activity (%),[4]; Gly* p-nitroanilide (suspension),20%
same,Relative activity (%),[4]; Ile p-nitroanilide,0.5%
same,Relative activity (%),[4]; Leu p-nitroanilide,18.5%
same,Relative activity (%),[4]; Lys p-nitroanilide,6%
same,Relative activity (%),[4]; Met p-nitroanilide,24%
same,Relative activity (%),[4]; Phe* p-nitroanilide (suspension),0%
same,Relative activity (%),[4]; Pro p-nitroanilide,0%
same,Relative activity (%),[4]; Val p-nitroanilide,0.5%
